Article PMC2841635

Biological target: purified tagged Ack1 (HA-tagged Ack1 in methods and Fig. S1B; Myc-tagged Ack1 in the results) (UniProt Q07912)
Assay: co-IP; in vitro binding assay: 50 nM of purified Ack and AKT in mRLB (25 mM Tris pH 7.5, 175 mM NaCl, 1% Triton X-100, 10% glycerol), 30 mins at room temperature, then anti-Ack1 antibodies and Protein-A-sepharose overnight at 4°C; IB with anti-AKT antibody

UniProt Q07912, sequence (Q07912 whole entry): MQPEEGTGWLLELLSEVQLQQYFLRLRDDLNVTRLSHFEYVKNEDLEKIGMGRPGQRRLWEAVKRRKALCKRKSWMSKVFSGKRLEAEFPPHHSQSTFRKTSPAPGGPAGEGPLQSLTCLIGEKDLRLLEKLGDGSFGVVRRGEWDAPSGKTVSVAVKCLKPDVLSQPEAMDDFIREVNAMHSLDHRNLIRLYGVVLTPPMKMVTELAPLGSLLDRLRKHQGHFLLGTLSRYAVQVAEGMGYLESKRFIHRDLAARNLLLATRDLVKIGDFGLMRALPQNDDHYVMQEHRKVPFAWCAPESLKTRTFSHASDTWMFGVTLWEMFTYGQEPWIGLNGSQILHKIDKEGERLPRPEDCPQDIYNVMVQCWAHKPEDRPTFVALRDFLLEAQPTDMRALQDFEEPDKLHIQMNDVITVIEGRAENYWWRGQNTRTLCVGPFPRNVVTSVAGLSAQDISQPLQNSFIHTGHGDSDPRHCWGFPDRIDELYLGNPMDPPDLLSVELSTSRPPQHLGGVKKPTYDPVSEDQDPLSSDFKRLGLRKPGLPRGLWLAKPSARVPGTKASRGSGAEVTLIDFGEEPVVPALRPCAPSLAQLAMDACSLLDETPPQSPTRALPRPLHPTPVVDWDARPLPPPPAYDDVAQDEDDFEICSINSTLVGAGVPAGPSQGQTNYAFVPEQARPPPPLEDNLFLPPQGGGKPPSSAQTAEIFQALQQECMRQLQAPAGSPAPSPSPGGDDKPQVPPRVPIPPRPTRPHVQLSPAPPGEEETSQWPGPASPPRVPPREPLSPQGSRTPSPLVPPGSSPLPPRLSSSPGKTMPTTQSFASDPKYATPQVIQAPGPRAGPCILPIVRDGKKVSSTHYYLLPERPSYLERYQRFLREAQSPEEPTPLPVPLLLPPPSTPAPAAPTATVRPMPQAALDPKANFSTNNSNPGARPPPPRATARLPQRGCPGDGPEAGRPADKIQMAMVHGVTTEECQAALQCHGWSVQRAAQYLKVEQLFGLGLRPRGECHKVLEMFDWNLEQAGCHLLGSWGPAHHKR

Substance: HA-tagged AKT expressed in HEK293T/HEK293 cells (from UniProt P31749 1-480) (enzyme)
- percent of total AKT in complex with Ack1: 6.35%
